Positions of bridges follow the written chain, without caps; N, C: chain ends. No end group written: not given here.
B1: LH201 (peptide)
peptide: CWTLNSAGYLLGCHAV-NH2
modifications: disulfide 1-13; N-terminus assumed
SMILES: CC(C)C[C@@H]1NC(=O)[C@H](CC(C)C)NC(=O)[C@H](Cc2ccc(O)cc2)NC(=O)CNC(=O)[C@H](C)NC(=O)[C@H](CO)NC(=O)[C@H](CC(N)=O)NC(=O)[C@H](CC(C)C)NC(=O)[C@H]([C@@H](C)O)NC(=O)[C@H](Cc2c[nH]c3ccccc23)NC(=O)[C@@H](N)CSSC[C@@H](C(=O)N[C@@H](Cc2c[nH]cn2)C(=O)N[C@@H](C)C(=O)N[C@H](C(N)=O)C(C)C)NC(=O)CNC1=O
B2: LH101 (peptide)
peptide: CWTPQAMLYLKGCQ-NH2
modifications: disulfide 1-13; N-terminus assumed
SMILES: CSCC[C@@H]1NC(=O)[C@H](C)NC(=O)[C@H](CCC(N)=O)NC(=O)[C@@H]2CCCN2C(=O)[C@H]([C@@H](C)O)NC(=O)[C@H](Cc2c[nH]c3ccccc23)NC(=O)[C@@H](N)CSSC[C@@H](C(=O)N[C@@H](CCC(N)=O)C(N)=O)NC(=O)CNC(=O)[C@H](CCCCN)NC(=O)[C@H](CC(C)C)NC(=O)[C@H](Cc2ccc(O)cc2)NC(=O)[C@H](CC(C)C)NC1=O
B3: LH101 (Ac) (peptide)
peptide: Ac-CWTPQAMLYLKGCQ-NH2
modifications: disulfide 1-13
SMILES: CSCC[C@@H]1NC(=O)[C@H](C)NC(=O)[C@H](CCC(N)=O)NC(=O)[C@@H]2CCCN2C(=O)[C@H]([C@@H](C)O)NC(=O)[C@H](Cc2c[nH]c3ccccc23)NC(=O)[C@@H](NC(C)=O)CSSC[C@@H](C(=O)N[C@@H](CCC(N)=O)C(N)=O)NC(=O)CNC(=O)[C@H](CCCCN)NC(=O)[C@H](CC(C)C)NC(=O)[C@H](Cc2ccc(O)cc2)NC(=O)[C@H](CC(C)C)NC1=O
B4: LH102 (peptide)
peptide: NWTCQAMLYLKGCQ-NH2
modifications: disulfide 4-13; N-terminus assumed
SMILES: CSCC[C@@H]1NC(=O)[C@H](C)NC(=O)[C@H](CCC(N)=O)NC(=O)[C@@H](NC(=O)[C@@H](NC(=O)[C@H](Cc2c[nH]c3ccccc23)NC(=O)[C@@H](N)CC(N)=O)[C@@H](C)O)CSSC[C@@H](C(=O)N[C@@H](CCC(N)=O)C(N)=O)NC(=O)CNC(=O)[C@H](CCCCN)NC(=O)[C@H](CC(C)C)NC(=O)[C@H](Cc2ccc(O)cc2)NC(=O)[C@H](CC(C)C)NC1=O

Target: T1, human galanin receptor 1 (hGalR1) (human, UniProt P47211 1-349)
T1 sequence (looked up): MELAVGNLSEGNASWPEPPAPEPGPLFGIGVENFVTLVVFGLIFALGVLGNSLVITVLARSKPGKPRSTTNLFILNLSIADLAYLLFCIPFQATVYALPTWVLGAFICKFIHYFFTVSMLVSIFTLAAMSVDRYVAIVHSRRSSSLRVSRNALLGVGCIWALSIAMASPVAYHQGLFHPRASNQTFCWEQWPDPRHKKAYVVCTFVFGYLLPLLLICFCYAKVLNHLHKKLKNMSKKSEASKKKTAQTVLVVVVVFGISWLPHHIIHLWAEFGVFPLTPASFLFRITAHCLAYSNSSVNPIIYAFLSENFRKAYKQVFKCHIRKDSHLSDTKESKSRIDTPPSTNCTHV
Test: cell-based or functional assay

| EC50, receptor activation (SRE-Luc assay) | Emax, receptor activation (SRE-Luc assay) | Binder |
| --- | --- | --- |
| > 10000 nM | 0.35 relative to hGAL Emax | B1 |
| – | 0.22 relative to hGAL Emax | Ac-CWTLNSAGYLLGCHAV-NH2 (disulfide 1-13) [LH201 (Ac)] |

Target: T2, human galanin receptor 2 (hGalR2) (human, UniProt O43603 1-387)
T2 sequence (looked up): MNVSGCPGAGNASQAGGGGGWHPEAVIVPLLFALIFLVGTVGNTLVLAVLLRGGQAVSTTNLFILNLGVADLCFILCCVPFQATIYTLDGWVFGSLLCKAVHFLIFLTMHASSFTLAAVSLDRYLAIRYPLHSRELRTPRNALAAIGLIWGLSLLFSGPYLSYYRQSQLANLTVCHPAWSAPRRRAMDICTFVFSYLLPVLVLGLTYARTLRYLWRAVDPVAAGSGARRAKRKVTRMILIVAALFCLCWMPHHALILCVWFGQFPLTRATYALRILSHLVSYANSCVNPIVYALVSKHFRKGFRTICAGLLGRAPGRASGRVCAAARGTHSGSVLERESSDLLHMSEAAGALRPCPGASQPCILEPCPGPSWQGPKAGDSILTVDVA
Test: cell-based or functional assay

| EC50, receptor activation (SRE-Luc assay) | Emax, receptor activation (SRE-Luc assay) | Binder |
| --- | --- | --- |
| 120 nM | 1 relative to hSPX Emax | B1 |
| 470 nM | 0.98 relative to hSPX Emax | NWTCQAMLYLKGAQ-NH2 [hSPX (C4)] |
| 1190 nM | 1.09 relative to hSPX Emax | B2 |
| 380 nM | 0.97 relative to hSPX Emax | B3 |
| 510 nM | 1.05 relative to hSPX Emax | CWTPQAMLYLKGAQ-NH2 [hSPX (C1)] |
| 480 nM | 1.16 relative to hSPX Emax | Ac-CWTLNSAGYLLGCHAV-NH2 (disulfide 1-13) [LH201 (Ac)] |
| 370 nM | 0.87 relative to hSPX Emax | NWTPQAMLYLKGCQ-NH2 [hSPX (C13)] |
| 220 nM | 1.02 relative to hSPX Emax | GWTLNSAGYLLGPHAV-NH2 [human galanin (1-16), hGAL (1-16)] |
| 1430 nM | 1.08 relative to hSPX Emax | B4 |

Target: T3, human galanin receptor 3 (hGalR3) (human, UniProt O60755 1-368)
T3 sequence (looked up): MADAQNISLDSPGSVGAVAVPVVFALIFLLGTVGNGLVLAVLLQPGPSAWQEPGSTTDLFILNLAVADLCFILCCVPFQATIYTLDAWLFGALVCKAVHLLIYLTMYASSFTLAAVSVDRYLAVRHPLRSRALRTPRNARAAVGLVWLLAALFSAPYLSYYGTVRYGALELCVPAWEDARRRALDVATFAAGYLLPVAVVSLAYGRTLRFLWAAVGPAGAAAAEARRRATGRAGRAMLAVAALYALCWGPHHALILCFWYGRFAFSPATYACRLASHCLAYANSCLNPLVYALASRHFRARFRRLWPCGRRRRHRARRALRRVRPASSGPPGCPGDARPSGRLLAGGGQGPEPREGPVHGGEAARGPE
Test: cell-based or functional assay

| EC50, receptor activation (SRE-Luc assay) | Emax, receptor activation (SRE-Luc assay) | Binder |
| --- | --- | --- |
| > 10000 nM | 0.55 relative to hSPX Emax | B1 |
| 770 nM | 0.91 relative to hSPX Emax | NWTCQAMLYLKGAQ-NH2 [hSPX (C4)] |
| 1560 nM | 1.04 relative to hSPX Emax | B2 |
| – | 0.68 relative to hSPX Emax | GWTLNSAGYLLGPHAVGNHRSFSDKNGLTS-NH2 [human galanin (hGAL)] |
| 390 nM | 1 relative to hSPX Emax | B3 |
| 360 nM | 1 relative to hSPX Emax | CWTPQAMLYLKGAQ-NH2 [hSPX (C1)] |
| – | 0.2 relative to hSPX Emax | Ac-CWTLNSAGYLLGCHAV-NH2 (disulfide 1-13) [LH201 (Ac)] |
| 630 nM | 0.88 relative to hSPX Emax | NWTPQAMLYLKGCQ-NH2 [hSPX (C13)] |
| > 10000 nM | 0.45 relative to hSPX Emax | GWTLNSAGYLLGPHAV-NH2 [human galanin (1-16), hGAL (1-16)] |
| 1500 nM | 0.87 relative to hSPX Emax | B4 |
